The target of assay [1] is T1, ERα-Gluc2 (estrogen receptor alpha fused to Gluc2) (UniProt P03372 1-595).
T1 construct: not shown: Gaussia luciferase (Gluc), carboxyl-terminal fragment Gluc2, amino acids 94-169
T1 sequence (looked up): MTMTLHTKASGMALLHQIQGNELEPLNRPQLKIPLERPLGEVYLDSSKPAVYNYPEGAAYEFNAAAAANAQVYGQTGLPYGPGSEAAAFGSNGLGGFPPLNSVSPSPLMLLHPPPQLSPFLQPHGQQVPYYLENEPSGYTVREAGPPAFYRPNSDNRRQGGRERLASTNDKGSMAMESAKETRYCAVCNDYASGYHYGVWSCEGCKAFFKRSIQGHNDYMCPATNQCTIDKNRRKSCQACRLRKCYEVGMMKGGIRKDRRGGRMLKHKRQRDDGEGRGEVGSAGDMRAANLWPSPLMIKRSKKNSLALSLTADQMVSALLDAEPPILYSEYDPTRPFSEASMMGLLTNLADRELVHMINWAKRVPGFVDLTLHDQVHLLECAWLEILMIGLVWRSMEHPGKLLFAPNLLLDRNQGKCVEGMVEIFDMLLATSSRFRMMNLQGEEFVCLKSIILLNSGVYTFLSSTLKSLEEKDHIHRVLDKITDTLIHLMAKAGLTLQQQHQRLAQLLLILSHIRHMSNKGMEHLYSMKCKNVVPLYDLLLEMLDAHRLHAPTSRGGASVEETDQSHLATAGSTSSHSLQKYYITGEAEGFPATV
The experiment in a line: PCA in HEK-293T cells, estradiol 10 nM 60 min (FIG. 8C). How it is done:
(§1) (A) HEK-293T cells (6×10³) were seeded in 96-well plates. […] (B and C) HEK-293T cells (6×10³) were seeded in 96-well plates. […] Cells were then lysed and luminescence was determined.

For assay [2], the target named is T2, GR-Gluc2 (full-length glucocorticoid receptor fused at its carboxyl terminus to Gluc2) (human, UniProt P04150 1-777).
T2 construct: domain: full length;range 94-169; Expressed in HEK-293/HEK-293T cells by transfection; also called Gluc2-GR; not shown: Gaussia luciferase (Gluc), carboxyl-terminal fragment Gluc2, amino acids 94-169
T2 sequence (looked up): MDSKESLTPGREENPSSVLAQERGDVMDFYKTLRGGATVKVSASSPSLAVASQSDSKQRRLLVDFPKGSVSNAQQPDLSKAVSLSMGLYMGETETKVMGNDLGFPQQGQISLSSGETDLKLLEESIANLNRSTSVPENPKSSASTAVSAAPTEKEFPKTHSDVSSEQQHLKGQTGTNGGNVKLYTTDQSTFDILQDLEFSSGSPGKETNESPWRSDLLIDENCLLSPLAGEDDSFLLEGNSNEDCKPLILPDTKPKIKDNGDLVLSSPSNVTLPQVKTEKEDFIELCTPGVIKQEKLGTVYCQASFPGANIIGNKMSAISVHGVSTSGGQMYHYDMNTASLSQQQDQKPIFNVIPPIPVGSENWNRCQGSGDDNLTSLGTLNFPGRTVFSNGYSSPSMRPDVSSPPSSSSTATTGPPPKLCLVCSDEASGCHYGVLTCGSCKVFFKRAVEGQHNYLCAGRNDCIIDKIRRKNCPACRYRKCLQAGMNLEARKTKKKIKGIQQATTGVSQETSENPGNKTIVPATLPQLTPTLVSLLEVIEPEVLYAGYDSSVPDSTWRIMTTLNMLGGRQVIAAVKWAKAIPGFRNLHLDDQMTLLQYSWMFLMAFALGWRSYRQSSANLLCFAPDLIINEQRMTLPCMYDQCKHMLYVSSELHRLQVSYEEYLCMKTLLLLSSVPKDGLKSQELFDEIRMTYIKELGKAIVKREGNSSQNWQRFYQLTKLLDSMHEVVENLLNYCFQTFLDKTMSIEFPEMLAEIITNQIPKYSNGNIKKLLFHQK
In words: PCA time course after DEX 1 µM in HEK-293T cells (FIG. 2A). How it is done: (A) HEK-293T cells (6×10³) were seeded in 96-well plates. […] Luminescence of vehicle-treated cells was used for normalization. […] Images were processed using the Zeiss ZEN2011 software. […] Bars, 20 μm.

Assay [3] addresses T3, MR-Gluc2 (mineralocorticoid receptor fused to Gluc2) (UniProt P08235 1-984).
T3 construct: not shown: Gaussia luciferase (Gluc), carboxyl-terminal fragment Gluc2, amino acids 94-169
T3 sequence (looked up): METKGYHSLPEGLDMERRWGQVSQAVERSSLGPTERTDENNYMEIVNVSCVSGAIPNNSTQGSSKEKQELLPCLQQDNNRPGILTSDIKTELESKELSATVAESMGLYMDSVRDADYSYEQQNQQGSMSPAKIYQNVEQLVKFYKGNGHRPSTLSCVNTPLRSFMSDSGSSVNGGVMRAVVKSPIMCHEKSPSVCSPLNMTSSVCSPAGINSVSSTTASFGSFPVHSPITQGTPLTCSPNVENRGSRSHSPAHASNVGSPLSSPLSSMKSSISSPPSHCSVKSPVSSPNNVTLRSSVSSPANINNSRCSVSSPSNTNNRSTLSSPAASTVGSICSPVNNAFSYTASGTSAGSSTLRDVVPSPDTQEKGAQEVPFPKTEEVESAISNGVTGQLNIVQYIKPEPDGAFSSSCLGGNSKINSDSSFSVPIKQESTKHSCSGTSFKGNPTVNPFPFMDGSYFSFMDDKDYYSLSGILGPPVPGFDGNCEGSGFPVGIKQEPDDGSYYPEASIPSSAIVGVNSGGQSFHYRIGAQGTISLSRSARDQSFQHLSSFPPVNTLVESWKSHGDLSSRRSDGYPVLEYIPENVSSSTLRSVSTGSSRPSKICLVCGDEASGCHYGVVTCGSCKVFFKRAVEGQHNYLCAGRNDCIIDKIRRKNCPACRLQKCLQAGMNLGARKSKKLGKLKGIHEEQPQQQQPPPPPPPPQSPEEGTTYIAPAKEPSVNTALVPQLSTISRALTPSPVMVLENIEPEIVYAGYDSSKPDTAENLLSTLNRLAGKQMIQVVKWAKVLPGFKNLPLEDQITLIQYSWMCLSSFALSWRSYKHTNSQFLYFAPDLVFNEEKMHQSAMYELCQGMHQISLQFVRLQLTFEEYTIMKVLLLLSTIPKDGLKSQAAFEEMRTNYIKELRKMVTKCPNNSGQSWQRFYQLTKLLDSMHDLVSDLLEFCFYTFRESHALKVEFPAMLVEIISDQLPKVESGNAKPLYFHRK
The experiment in a line: PCA in HEK-293T cells, DEX 1 µM 60 min (FIG. 8B). On the procedure:
as §1

The target in assay [4] is T1, ERα-Gluc2 (estrogen receptor alpha …). In words: PCA in HEK-293T cells, vehicle against estradiol 10 nM 60 min (FIG. 8C). How it is done: as §1
Assay [5] has as its target T2, GR-Gluc2 (full-length glucocorticoid …). In words: PCA in HEK-293T cells, DEX 1 µM with or without RU486 1 µM (FIG. 1C). An excerpt:
EB, empty beads; C, solvent control. Images shown are representative of three biological replicates.
The resulting luminescence was normalized to the signal associated with cells treated with vehicle only.

The target is the same in assay [6]. The experiment in a line: PCA in HEK-293T cells, DEX 1 µM or estradiol 10 nM 60 min (FIG. 8D). How it is done:
as §1

B1: Gluc1-FLI1 (full-length FLI1 fused downstream of Gluc1) (other, UniProt Q01543 1-452, looked up)
chain: MDGTIKEALSVVSDDQSLFDSAYGAAAHLPKADMTASGSPDYGQPHKINPLPPQQEWINQPVRVNVKREYDHMNGSRESPVDCSVSKCSKLVGGGESNPMNYNSYMDEKNGPPPPNMTTNERRVIVPADPTLWTQEHVRQWLEWAIKEYSLMEIDTSFFQNMDGKELCKMNKEDFLRATTLYNTEVLLSHLSYLRESSLLAYNTTSHTDQSSRLSVKEDPSYDSVRRGAWGNNMNSGLNKSPPLGGAQTISKNTEQRPQPDPYQILGPTSSRLANPGSGQIQLWQFLLELLSDSANASCITWEGTNGEFKMTDPDEVARRWGERKSKPNMNYDKLSRALRYYYDKNIMTKVHGKRYAYKFDFHGIAQALQPHPTESSMYKYPSDISYMPSYHAHQQKVNFVPPHPSSMPVTSSSFFGAASQYWTSPTGGIYPNPNVPRHPNTHVPSHLGSYY
notes: range 1-93;domain: full length; also called FiI1; not shown: Gaussia luciferase (Gluc), amino-terminal fragment Gluc1, amino acids 1-93
Take B1: in assay [1], the binding result is recorded as “no binding”.

B2: Gluc1-ERG (other, UniProt P11308-3 1-486, looked up)
chain: MIQTVPDPAAHIKEALSVVSEDQSLFECAYGTPHLAKTEMTASSSSDYGQTSKMSPRVPQQDWLSQPPARVTIKMECNPSQVNGSRNSPDECSVAKGGKMVGSPDTVGMNYGSYMEEKHMPPPNMTTNERRVIVPADPTLWSTDHVRQWLEWAVKEYGLPDVNILLFQNIDGKELCKMTKDDFQRLTPSYNADILLSHLHYLRETPLPHLTSDDVDKALQNSPRLMHARNTGGAAFIFPNTSVYPEATQRITTRPDLPYEPPRRSAWTGHGHPTPQSKAAQPSPSTVPKTEDQRPQLDPYQILGPTSSRLANPGSGQIQLWQFLLELLSDSSNSSCITWEGTNGEFKMTDPDEVARRWGERKSKPNMNYDKLSRALRYYYDKNIMTKVHGKRYAYKFDFHGIAQALQPHPPESSLYKYPSDLPYMGSYHAHPQKMNFVAPHPPALPVTSSSFFAAPNPYWNSPTGGIYPNTRLPTSHMPSHLGTYY
notes: not shown: Gaussia luciferase (Gluc), amino-terminal fragment Gluc1, amino acids 1-93
In the case of B2, the binding result in assay [2] was “binds”; in assay [1] it was “no binding”; in assay [3] it was “binds”.

B3: Gluc1-ELF3 (other, UniProt P78545 1-371, looked up)
chain: MAATCEISNIFSNYFSAMYSSEDSTLASVPPAATFGADDLVLTLSNPQMSLEGTEKASWLGEQPQFWSKTQVLDWISYQVEKNKYDASAIDFSRCDMDGATLCNCALEELRLVFGPLGDQLHAQLRDLTSSSSDELSWIIELLEKDGMAFQEALDPGPFDQGSPFAQELLDDGQQASPYHPGSCGAGAPSPGSSDVSTAGTGASRSSHSSDSGGSDVDLDPTDGKLFPSDGFRDCKKGDPKHGKRKRGRPRKLSKEYWDCLEGKKSKHAPRGTHLWEFIRDILIHPELNEGLMKWENRHEGVFKFLRSEAVAQLWGQKKKNSNMTYEKLSRAMRYYYKREILERVDGRRLVYKFGKNSSGWKEEEVLQSRN
notes: as for B2
As for B3, the binding result in assay [4] was “binds”.

B4: Gluc1-ETV4 (other, UniProt P43268 1-484, looked up)
chain: MERRMKAGYLDQQVPYTFSSKSPGNGSLREALIGPLGKLMDPGSLPPLDSEDLFQDLSHFQETWLAEAQVPDSDEQFVPDFHSENLAFHSPTTRIKKEPQSPRTDPALSCSRKPPLPYHHGEQCLYSSAYDPPRQIAIKSPAPGALGQSPLQPFPRAEQRNFLRSSGTSQPHPGHGYLGEHSSVFQQPLDICHSFTSQGGGREPLPAPYQHQLSEPCPPYPQQSFKQEYHDPLYEQAGQPAVDQGGVNGHRYPGAGVVIKQEQTDFAYDSDVTGCASMYLHTEGFSGPSPGDGAMGYGYEKPLRPFPDDVCVVPEKFEGDIKQEGVGAFREGPPYQRRGALQLWQFLVALLDDPTNAHFIAWTGRGMEFKLIEPEEVARLWGIQKNRPAMNYDKLSRSLRYYYEKGIMQKVAGERYVYKFVCEPEALFSLAFPDNQRPALKAEFDRPVSEEDTVPLSHLDESPAYLPELAGPAQPFGPKGGYSY
notes: as for B2
As to B4, the binding result is “binds” in assay [5] and “no binding” in assay [1].

B5: Gluc1-ETV2 (other, UniProt O00321 1-342, looked up)
chain: MDLWNWDEASPQEVPPGNKLAGLEGAKLGFCFPDLALQGDTPTATAETCWKGTSSSLASFPQLDWGSALLHPEVPWGAEPDSQALPWSGDWTDMACTAWDSWSGASQTLGPAPLGPGPIPAAGSEGAAGQNCVPVAGEATSWSRAQAAGSNTSWDCSVGPDGDTYWGSGLGGEPRTDCTISWGGPAGPDCTTSWNPGLHAGGTTSLKRYQSSALTVCSEPSPQSDRASLARCPKTNHRGPIQLWQFLLELLHDGARSSCIRWTGNSREFQLCDPKEVARLWGERKRKPGMNYEKLSRGLRYYYRRDIVRKSGGRKYTYRFGGRVPSLAYPDCAGGGRGAETQ
notes: as for B2
B5: the binding result in assay [1] is “no binding”; in assay [3] it was “binds”.

B6: ERα-Gluc1 (estrogen receptor alpha fused to Gluc1) (receptor, UniProt P03372 1-595, looked up)
chain: MTMTLHTKASGMALLHQIQGNELEPLNRPQLKIPLERPLGEVYLDSSKPAVYNYPEGAAYEFNAAAAANAQVYGQTGLPYGPGSEAAAFGSNGLGGFPPLNSVSPSPLMLLHPPPQLSPFLQPHGQQVPYYLENEPSGYTVREAGPPAFYRPNSDNRRQGGRERLASTNDKGSMAMESAKETRYCAVCNDYASGYHYGVWSCEGCKAFFKRSIQGHNDYMCPATNQCTIDKNRRKSCQACRLRKCYEVGMMKGGIRKDRRGGRMLKHKRQRDDGEGRGEVGSAGDMRAANLWPSPLMIKRSKKNSLALSLTADQMVSALLDAEPPILYSEYDPTRPFSEASMMGLLTNLADRELVHMINWAKRVPGFVDLTLHDQVHLLECAWLEILMIGLVWRSMEHPGKLLFAPNLLLDRNQGKCVEGMVEIFDMLLATSSRFRMMNLQGEEFVCLKSIILLNSGVYTFLSSTLKSLEEKDHIHRVLDKITDTLIHLMAKAGLTLQQQHQRLAQLLLILSHIRHMSNKGMEHLYSMKCKNVVPLYDLLLEMLDAHRLHAPTSRGGASVEETDQSHLATAGSTSSHSLQKYYITGEAEGFPATV
notes: as for B2
Turning to B6, in assay [6], the binding result is listed as “binds”.
